We go through three molecules from US20220073649A1 (MERUS N V, published 2022).

Experiment [1] has as its target T1, human CXCR4 (human, UniProt P61073 1-352).
T1 construct: whole, on cells; Tested by flow cytometry; also called human C-X-C Motif Chemokine Receptor 4
Put plainly: figure legend (flow cytometry of Example 10). An excerpt:
(§1) Fab phage libraries were panned on mouse CXCR4 lipoparticles. Clones were screened by lipoparticle ELISA. Binders were sequenced and grouped into families based on CDR3 homology. Fab from three VHCDR3 families were validated by flow cytometry using HEK293 cells expressing natively folded mouse CXCR4. These families were subsequently tested for binding to human CXCR4 by flow cytometry. The positive clones were recloned into IgG format according to standard methods. Three VHCDR3 families were identified that are crossreactive with human and mouse CXCR4. The amino acid sequences of the heavy chain variable region of the mouse and human CXCR4 binding antibodies are set forth in SEQ Nos: 31, 32 and 33.

Experiment [2] addresses T2, mouse CXCR4 (wildtype full length) (mouse, UniProt P70658 1-359).
T2 construct: Natively folded mouse CXCR4 expressed on HEK293 cells for flow cytometry
Description: flow cytometry, Fab on HEK293 cells expressing natively folded mouse CXCR4.
Excerpt: as §1
In general terms: In flow cytometry, cells or beads pass a laser one at a time.

The target of experiment [3] is T1, human CXCR4. Put plainly: flow cytometry on human CXCR4.
Excerpt: as §1

Experiment [4] deals with T2, mouse CXCR4 (wildtype full length). Description: figure legend (flow cytometry of Example 10).
Excerpt: as §1

T2 sequence (P70658 whole entry): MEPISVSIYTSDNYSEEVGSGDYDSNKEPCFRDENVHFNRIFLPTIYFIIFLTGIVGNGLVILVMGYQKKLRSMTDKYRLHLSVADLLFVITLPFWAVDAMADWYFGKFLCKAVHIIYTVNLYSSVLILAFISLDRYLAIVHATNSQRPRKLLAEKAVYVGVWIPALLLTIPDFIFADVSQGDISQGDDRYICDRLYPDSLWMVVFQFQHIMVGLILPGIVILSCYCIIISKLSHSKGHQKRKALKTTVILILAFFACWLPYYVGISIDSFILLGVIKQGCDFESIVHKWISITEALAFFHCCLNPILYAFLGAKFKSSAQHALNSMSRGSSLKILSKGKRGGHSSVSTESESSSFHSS
T1 sequence (P61073 whole entry): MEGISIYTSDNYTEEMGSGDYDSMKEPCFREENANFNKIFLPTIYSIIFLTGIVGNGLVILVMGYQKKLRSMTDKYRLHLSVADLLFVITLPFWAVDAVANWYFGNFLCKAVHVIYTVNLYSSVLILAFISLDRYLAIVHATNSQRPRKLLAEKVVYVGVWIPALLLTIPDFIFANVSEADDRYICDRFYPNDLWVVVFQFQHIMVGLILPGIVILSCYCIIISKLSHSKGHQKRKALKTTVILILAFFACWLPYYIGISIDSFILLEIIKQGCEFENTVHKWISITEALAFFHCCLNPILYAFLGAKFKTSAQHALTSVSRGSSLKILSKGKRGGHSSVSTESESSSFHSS

B1: CXCR4-2 (second chimeric Fab comprising a chicken VH paired with a human VL that binds to mouse and human CXCR4) (Fab, V domains shown)
VH: AVTLDESGGGLQTPGGALSLVCKASGFSFSSYDMSWVRQAPGKGLEWVAGIYSIGRDAGYGAAVKGRATISRDNGQSTVRLQLNNLRAEDTGTYYCAKESGSACRYAARHGYICAGYLGSIDAWGHGTEVIVSS
VL: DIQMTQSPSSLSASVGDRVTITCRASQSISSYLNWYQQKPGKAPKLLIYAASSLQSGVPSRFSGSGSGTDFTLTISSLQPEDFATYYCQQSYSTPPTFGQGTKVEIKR
notes: Positive clones were later recloned into IgG format; also called chicken VH-human VL Fab
With B1, the binding result in experiment [1] and in experiment [2] was “binds” throughout.

B2: CXCR4-1 (first chimeric Fab comprising a chicken VH paired with a human VL that binds to mouse and human CXCR4) (Fab, V domains shown)
VH: AVTLDESGGGLQTPGGALSLVCKASGFTFSSYRGMHWVRQAPGKGLEWVAGIYSSGSSTAYGAAVKGRATISRDDGQSTVRLQLNNLRAEDTGTYYCAKDAGSCWYGRRSGFNCDPYGGNIDAWGHGTEVIVSS
VL: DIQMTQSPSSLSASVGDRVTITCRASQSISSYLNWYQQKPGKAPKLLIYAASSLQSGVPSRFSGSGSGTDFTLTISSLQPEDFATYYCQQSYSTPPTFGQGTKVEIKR
notes: as for B1
As for B2, the binding result in experiment [3] and in experiment [2] was “binds” throughout.

B3: CXCR4-3 (third chimeric Fab comprising a chicken VH paired with a human VL that binds to mouse and human CXCR4) (Fab, V domains shown)
VH: AVTLDESGGGLQTPGGALSLVCKASGFSIGSYGMGWVRQAPGKGLEFVAGISTIGGVTWYGAAVKGRAIISRDNGQSTVRLQLNNLRAEDTGTYFCAKASDSPSCRYGSRSGWSCPGWNYGGRIDAWGHGTEVIVSS
VL: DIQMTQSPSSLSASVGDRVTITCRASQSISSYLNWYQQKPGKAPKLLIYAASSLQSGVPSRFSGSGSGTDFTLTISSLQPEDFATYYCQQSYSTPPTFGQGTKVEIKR
notes: as for B1
As to B3, the binding result in experiment [4] and in experiment [1] was “binds” in each case.
